# Source: patent US11278600B2, “Human alpha-galactosidase variants” (Codexis, Inc., priority 2014, dated 2022)
# Substitutions are numbered along the chain they refer to.
# B1: 325 (protein)
# chain: LDNGLARTPTMGWLHWERFMCNLDCQEEPDSCISEKLFMEMAERMVSEGWKDAGYEYLCIDDCWMAPQRDSEGRLQADPQRFPHGIRQLANYVHSKGLKLGIYADVGNKTCAGFPGSFGYYDIDAQTFADWGVDLLKFDGCYCDSLENLADGYKHMSLALNRTGRSIVYSCEWPLYMWPFQKPNYTEIRQYCNHWRNFADIDDSWASIKSILDWTSRNQERIVDVAGPGGWNDPDMLVIGNFGLSWDQQVTQMALWAIMAAPLFMSNDLRHISPQAKALLQDKDVIAINQDPLGKQGYQLRQGDNFEVWERPLSGDAWAVAIINRQEIGGPRSYTIPVASLGGGVACNPACFITQLLPVKRQLGFYNWTSRLKSHINPTGTVLLQLENTMQMSLKDLL
# modifications: Synthetic Polypeptide sequence of Variant No. 325 of mature Human GLA
# B2: 327 (protein)
# chain: B1 chain with Q302K, P337A, G343D, A350G
# modifications: Synthetic Polypeptide sequence of Variant No. 327 of mature Human GLA
# B3: 326 (protein)
# chain: B1 chain with Q302K, G343K
# modifications: Synthetic Polypeptide sequence of Variant No. 326 of mature Human GLA
# B4: 316 (protein)
# chain: LDNGLARTPTMGWLHWERFMCNLDCQEEPDSCISEKLFMEMAELMVSEGWKDAGYEYLCIDDCWMAPQRDSEGRLQADPQRFPHGIRQLANYVHSKGLKFGIYADVGNKTCAGFPGSFGYYDIDAQTFADWGVDLLKFDGCYCDSLENLADGYKHMSLALNRTGRSIVYSCEWPLYMWPFQKPNYTEIRQYCNHWRNFADIDDSWASVKSILDWTSFNQEKIVDVAGPGGWNDPDMLVIGNFGLSWNQQVTQMALWAIMAAPLFMSNDLRHISPQAKALLQDKDVIAINQDPLGKQGYQLRQGDNFEVWERPLSGLAWAVAVINRQEIGGPRSYTIAVASLGDGVACNPACFITQLLPVKRKLGFYNWTSRLKSHINPTGTVLLQLENTMQMSLKDLL
# modifications: Synthetic Polypeptide sequence of Variant No. 316 of mature Human GLA
# B5: 322 (protein)
# chain: B4 chain with V208I, K221T, Q302K, V322I
# modifications: Synthetic Polypeptide sequence of Variant No. 322 of mature Human GLA
# B6: 319 (protein)
# chain: B4 chain with V208I, K221R, V322I, D343K, I376V
# modifications: Synthetic Polypeptide sequence of Variant No. 319 of mature Human GLA
# B7: 323 (protein)
# chain: B4 chain with L160I, V208I, D343K
# modifications: Synthetic Polypeptide sequence of Variant No. 323 of mature Human GLA
# B8: 317 (protein)
# chain: B4 chain with F365L
# modifications: Synthetic Polypeptide sequence of Variant No. 317 of mature Human GLA
# B9: 320 (protein)
# chain: B4 chain with V208I, K221R, N247D, Q302K, V322I, D343K
# modifications: Synthetic Polypeptide sequence of Variant No. 320 of mature Human GLA
# B10: 321 (protein)
# chain: B4 chain with V208I, N247D, V322I, D343G
# modifications: Synthetic Polypeptide sequence of Variant No. 321 of mature Human GLA
# B11: 324 (protein)
# chain: B4 chain with L23S, F100L, V208I, K221R, V322I, D343K
# modifications: Synthetic Polypeptide sequence of Variant No. 324 of mature Human GLA
# B12: 318 (protein)
# chain: B4 chain with K221T, D343K, I376V
# modifications: Synthetic Polypeptide sequence of Variant No. 318 of mature Human GLA
# Assay: HTP-analysis of yeast culture supernatants, no challenge (MUGal hydrolysis)
# Assay type: biochemical
# Conditions: activity of the variant/activity of Rd3BB (SEQ ID NO: 13), yeast culture supernatant
# In short: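 Activity read as 4-methylumbelliferyl α-D-galactopyranoside hydrolysis: fluorescence (355/448 nm) after sodium carbonate stop, following 30-180 min at 37° C with 2 mM MUGal stock at pH 4.6–4.8. Enzyme source is unchallenged culture supernatant of INVSc1 yeast expressing GLA variants, grown 66-84 h at 30° C.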
row,Molecule,Relative Activity of GLA Variants After No Challenge (NC)
1,B1,++ (++ = >1.5 to 2.5 relative activity over Rd3BB (SEQ ID NO: 13))
2,B2,++ (++ = >1.5 to 2.5 relative activity over Rd3BB (SEQ ID NO: 13))
3,B3,++ (++ = >1.5 to 2.5 relative activity over Rd3BB (SEQ ID NO: 13))
4,B4,+ (+ = 0.5 to 1.5 relative activity over Rd3BB (SEQ ID NO: 13))
5,B5,+ (+ = 0.5 to 1.5 relative activity over Rd3BB (SEQ ID NO: 13))
6,B6,+ (+ = 0.5 to 1.5 relative activity over Rd3BB (SEQ ID NO: 13))
7,B7,− (− = <0.5 relative activity to Rd3BB (SEQ ID NO: 13))
8,B8,+ (+ = 0.5 to 1.5 relative activity over Rd3BB (SEQ ID NO: 13))
9,B9,+ (+ = 0.5 to 1.5 relative activity over Rd3BB (SEQ ID NO: 13))
10,B10,++ (++ = >1.5 to 2.5 relative activity over Rd3BB (SEQ ID NO: 13))
11,B11,− (− = <0.5 relative activity to Rd3BB (SEQ ID NO: 13))
12,B12,+ (+ = 0.5 to 1.5 relative activity over Rd3BB (SEQ ID NO: 13))

# Assay: HTP-analysis of supernatants pretreated with base (MUGal hydrolysis)
# Assay type: biochemical
# Conditions: challenge at pH 8.2; activity of the variant/activity of Rd3BB (SEQ ID NO: 13); yeast culture supernatant
# In short: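 Fluorescence of released 4-MU (Ex 355 nm, Em 448 nm) after carbonate quench reports MUGal hydrolysis by GLA variants secreted from INVSc1 yeast. Before the acidic (pH 4.3-4.8) 30-180 min reaction at 37° C, supernatants had been pre-incubated at pH 7.0-9.7 for 1-18 h at 37° C.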
row,Molecule,Relative Activity of GLA Variants After Challenge at pH 8.2
1,B1,+++ (+++ = >2.5 relative activity over Rd3BB (SEQ ID NO: 13))
2,B2,+++ (+++ = >2.5 relative activity over Rd3BB (SEQ ID NO: 13))
3,B3,+++ (+++ = >2.5 relative activity over Rd3BB (SEQ ID NO: 13))
4,B4,+ (+ = 0.5 to 1.5 relative activity over Rd3BB (SEQ ID NO: 13))
5,B5,++ (++ = >1.5 to 2.5 relative activity over Rd3BB (SEQ ID NO: 13))
6,B6,+ (+ = 0.5 to 1.5 relative activity over Rd3BB (SEQ ID NO: 13))
7,B7,− (− = <0.5 relative activity to Rd3BB (SEQ ID NO: 13))
8,B8,− (− = <0.5 relative activity to Rd3BB (SEQ ID NO: 13))
9,B9,+ (+ = 0.5 to 1.5 relative activity over Rd3BB (SEQ ID NO: 13))
10,B10,+++ (+++ = >2.5 relative activity over Rd3BB (SEQ ID NO: 13))
11,B11,− (− = <0.5 relative activity to Rd3BB (SEQ ID NO: 13))
12,B12,++ (++ = >1.5 to 2.5 relative activity over Rd3BB (SEQ ID NO: 13))

# Assay: HTP-analysis of supernatants pretreated with bovine serum (MUGal hydrolysis)
# Assay type: biochemical
# Conditions: activity of the variant/activity of Rd3BB (SEQ ID NO: 13), yeast culture supernatant
# In short: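 Yeast INVSc1 culture supernatants containing secreted GLA variants were mixed with bovine serum (20:80) and held 1 h at 37° C. Serum-treated samples then reacted with MUGal (4 mM stock) in citrate/McIlvaine buffer (pH 4.3/4.8) for 180 min at 37° C., were quenched with sodium carbonate, and read by fluorescence (Ex 355, Em 448 nm).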
row,Molecule,Relative Activity of GLA Variants After Challenge with Serum
1,B1,+++ (+++ = >2.5 relative activity over Rd3BB (SEQ ID NO: 13))
2,B2,+++ (+++ = >2.5 relative activity over Rd3BB (SEQ ID NO: 13))
3,B3,+++ (+++ = >2.5 relative activity over Rd3BB (SEQ ID NO: 13))
4,B4,+ (+ = 0.5 to 1.5 relative activity over Rd3BB (SEQ ID NO: 13))
5,B5,+ (+ = 0.5 to 1.5 relative activity over Rd3BB (SEQ ID NO: 13))
6,B6,+ (+ = 0.5 to 1.5 relative activity over Rd3BB (SEQ ID NO: 13))
7,B7,+ (+ = 0.5 to 1.5 relative activity over Rd3BB (SEQ ID NO: 13))
8,B8,− (− = <0.5 relative activity to Rd3BB (SEQ ID NO: 13))
9,B9,+ (+ = 0.5 to 1.5 relative activity over Rd3BB (SEQ ID NO: 13))
10,B10,+ (+ = 0.5 to 1.5 relative activity over Rd3BB (SEQ ID NO: 13))
11,B11,− (− = <0.5 relative activity to Rd3BB (SEQ ID NO: 13))
12,B12,+ (+ = 0.5 to 1.5 relative activity over Rd3BB (SEQ ID NO: 13))

# Assay: HTP-analysis of supernatants pretreated with acid (MUGal hydrolysis)
# Assay type: biochemical
# Conditions: challenge at pH 4.0; activity of the variant/activity of Rd3BB (SEQ ID NO: 13); yeast culture supernatant
# In short: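 Supernatants from INVSc1 yeast secreting GLA variants were challenged at 37° C. for 1-3 h in McIlvaine buffer at pH 3.3-4.3. Residual activity was then measured on 4 mM MUGal substrate stock at pH 4.8 with citrate buffer pH 4.3, over 30-180 min at 37° C. Reactions were quenched with sodium carbonate and read by fluorescence (Ex 355/Em 448 nm).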
row,Molecule,Relative Activity of GLA Variants After Challenge at pH 4.0
1,B1,+++ (+++ = >2.5 relative activity over Rd3BB (SEQ ID NO: 13))
2,B2,+++ (+++ = >2.5 relative activity over Rd3BB (SEQ ID NO: 13))
3,B3,+++ (+++ = >2.5 relative activity over Rd3BB (SEQ ID NO: 13))
4,B4,+ (+ = 0.5 to 1.5 relative activity over Rd3BB (SEQ ID NO: 13))
5,B5,+ (+ = 0.5 to 1.5 relative activity over Rd3BB (SEQ ID NO: 13))
6,B6,+ (+ = 0.5 to 1.5 relative activity over Rd3BB (SEQ ID NO: 13))
7,B7,− (− = <0.5 relative activity to Rd3BB (SEQ ID NO: 13))
8,B8,+ (+ = 0.5 to 1.5 relative activity over Rd3BB (SEQ ID NO: 13))
9,B9,+ (+ = 0.5 to 1.5 relative activity over Rd3BB (SEQ ID NO: 13))
10,B10,++ (++ = >1.5 to 2.5 relative activity over Rd3BB (SEQ ID NO: 13))
11,B11,− (− = <0.5 relative activity to Rd3BB (SEQ ID NO: 13))
12,B12,+ (+ = 0.5 to 1.5 relative activity over Rd3BB (SEQ ID NO: 13))
